{"source": "paper PMC13202173", "about": "“Polyphosphate as a novel regulator of super-enhancer complexes: disruption of phase separation and gene expression”", "target": "MBP-mCherry-YY1 (Homo sapiens, UniProt P25490 1-414)", "sequence (P25490 whole entry)": "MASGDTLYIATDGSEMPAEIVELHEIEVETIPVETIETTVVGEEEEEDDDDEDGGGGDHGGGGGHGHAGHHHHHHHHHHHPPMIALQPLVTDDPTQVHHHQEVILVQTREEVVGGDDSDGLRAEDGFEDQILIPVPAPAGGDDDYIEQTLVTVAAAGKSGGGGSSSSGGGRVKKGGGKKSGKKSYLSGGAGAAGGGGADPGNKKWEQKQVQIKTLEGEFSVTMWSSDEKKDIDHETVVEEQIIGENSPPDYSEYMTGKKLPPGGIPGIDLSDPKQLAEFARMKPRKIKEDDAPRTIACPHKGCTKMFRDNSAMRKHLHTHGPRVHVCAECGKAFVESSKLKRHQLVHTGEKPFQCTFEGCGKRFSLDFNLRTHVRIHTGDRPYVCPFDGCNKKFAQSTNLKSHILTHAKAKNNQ", "assay": "EMSA; 10 uM Zn2+, 100 mM KCl, no polyP; 2 uM protein, 25 nM probe; Motif EMSA: 10 mM Tris pH 7.5, 50 mM KCl, DTT, Tween 20, 5 mM MgCl2, ~25 nM probe, room temperature 30 min; G4 EMSA: 10 mM Tris-HCl pH 7.5, 100 mM KCl, 10 uM Zn, 1 mM DTT, 3% glycerol, room temperature 30 min; anisotropy: same without glycerol, on ice 30 min", "details": "protein: recombinant; tags: N-MBP-TEV, C-mCherry; label: 5' IRDye 700 on strand 1; G4 as stated by authors, annealed with S4 in 100 mM KCl; S3/S4 otherwise pair with mismatches"}
{"binder": "human telomere G4 (hTEL) probe (structured_DNA) DNA 1: AAAGGGTTAGTGTTAGTGTTAGGGAA DNA 2: TTCCCTAACCCTAACCCTAACCCTTT", "values": [{"measurement": "binding result", "result": "binds"}]}
